The labels stand for the following.
B1: HA-tagged wild-type human ZP1 [human] / MYC-tagged human wild-type ZP3 [human] (parent)
chain 1: RWLQPDPGLPGLRHSYDCGIKGMQLLVFPRPGQTLRFKVVDEFGNRFDVNNCSICYHWVTSRPQEPAVFSADYRGCHVLEKDGRFHLRVFMEAVLPNGRVDVAQDATLICPKPDPSRTLDSQLAPPAMFSVSTPQTLSFLPTSGHTSQGSGHAFPSPLDPGHSSVHPTPALPSPGPGPTLATLAQPHWGTLEHWDVNKRDYIGTHLSQEQCQVASGHLPCIVRRTSKEACQQAGCCYDNTREVPCYYGNTATVQCFRDGYFVLVVSQEMALTHRITLANIHLAYAPTSCSPTQHTEAFVVFYFPLTHCGTTMQVAGDQLIYENWLVSGIHIQKGPQGSITRDSTFQLHVRCVFNASDFLPIQASIFPPPSPAPMTQPGPLRLELRIAKDETFSSYYGEDDYPIVRLLREPVHVEVRLLQRTDPNLVLLLHQCWGAPSANPFQQPQWPILSDGCPFKGDSYRTQMVALDGATPFQSHYQRFTVATFALLDSGSQRALRGLVYLFCSTSACHTSGLETCSTACSTGTTRQ
chain 2: QPLWLLQGGASHPETSVQPVLVECQEATLMVMVSKDLFGTGKLIRAADLTLGPEACEPLVSMDTEDVVRFEVGLHECGNSMQVTDDALVYSTFLLHDPRPVGNLSIVRTNRAEIPIECRYPRQGNVSSQAILPTWLPFRTTVFSEEKLTFSLRLMEENWNAEKRSPTFHLGDAAHLQAEIHTGSHVPLRLFVDHCVATPTPDQNASPYHTIVDFHGCLVDGLTDASSAFKVPRPGPDTLQFTVDVFHFANDSRNMIYITCHLKVTLAEQDPDELNKACSFSKPSNSWFPVEGSADICQCCNKGDCGTPSHSRRQPHVMSQWSRSASRN
B2: MYC-tagged human wild-type ZP3 [human] / HA-tagged wild-type human ZP1 [human] (parent)
chain 1: B1 chain 2
chain 2: B1 chain 1

In the first test the parent is B1. The test is described as follows: co-IP (IP: anti-HA, blot anti-MYC), densitometry. To be noted: with MYC-tagged human wild-type ZP3 [human]; HeLa cells; mutant lane co-transfected with HA-ZP1WT + HA-ZP1R109H + MYC-ZP3 (imitating heterozygous state); parent lane HA-ZP1WT + MYC-ZP3; parent: 1; read off a plot; scale: relative protein level.
Turning to chain 1 R84H, the response stood at 0.22.

Another test covers variants of B2. Kind of test: co-IP (IP: MYC as labelled in the image, blot anti-HA), densitometry. The note with it: with HA-tagged wild-type human ZP1 [human]; HeLa cells; mutant lane co-transfected with MYC-ZP3WT + MYC-ZP3A134T + HA-ZP1 (imitating heterozygous state); parent lane MYC-ZP3WT + HA-ZP1; parent: 1; read off a plot; scale: relative protein level.
For chain 1 A112T, the response was 0.87.

For the origin of these results see article PMC7412702.
